Experiments:
Assay in all cases: cell_activity
[1] = system: TAL1-Tet1-CD (TAL effector repeat array to KLF4 site 1, Gly3Ser linker, Tet1 catalytic domain); conditions: CpG demethylation 15 bp downstream of site (32.5% at 9 bp); K562 cells, bisulfite sequencing
[2] = system: TAL4-Tet1-CD (KLF4 site 4); conditions: CpG demethylation 13 bp downstream, no other CpGs significant; K562 cells
[3] = system: KLF4 six-finger ZF-Tet1 fusion (engineered); conditions: CpG demethylation 6 bp downstream (25% at 24 bp); K562 cells; one of two KLF4 ZF-Tet1 proteins
[4] = system: TAL2-Tet1-CD (KLF4 site 2); conditions: CpG demethylation 17 bp downstream (28.2% at 27 bp, none at 1 and 3 bp); K562 cells
[5] = system: TAL3-Tet1-CD (KLF4 site 3); conditions: CpG demethylation at 22, 36, 116 and 143 bp downstream; K562 cells

Substance: GGGGGCGGGCGGAGCCTTGGGGTCACCAAGAGCCACTGAACGAGGGTAAGGAGCGGCCACCGCGCGGACTCCGCAACCTTCCCGGGATAGCTTCCGTGTCCTTGGCTCAGCTGTGTATGCCCGTGGTGCGAGCACTGCGGAGCCGCCTGGGGCGCAAGCCGGGTCTTCACCAGTCCCCGGGCGCGCTGTCGGTAGGGCGGGCGCTCTCGGGCCACCGGGCGGGAGGTGGCCGCGTCCCCAGACACTGGCTGGGCCAGAGTGAGTTTAGCGCGTAGGCGGC (double strand) [KLF4 intron 1-2 TAL site 1]
- activity [1]: 45.4%

Substance: GGGGGCGGGCGGAGCCTTGGGGTCACCAAGAGCCACTGAACGAGGGTAAGGAGCGGCCACCGCGCGGACTCCGCAACCTTCCCGGGATAGCTTCCGTGTCCTTGGCTCAGCTGTGTATGCCCGTGGTGCGAGCACTGCGGAGCCGCCTGGGGCGCAAGCCGGGTCTTCACCAGTCCCCGGGCGCGCTGTCGGTAGGGCGGGCGCTCTCGGGCCACCGGGCGGGAGGTGGCCGCGTCCCCAGACACTGGCTGGGCCAGAGTGAGTTTAGCGCGTAGGCGGC (double strand) [KLF4 intron 1-2 TAL site 4]
- activity [2]: 37%

Substance: KLF4 locus ZF site
- activity [3]: 68%

Substance: GGGGGCGGGCGGAGCCTTGGGGTCACCAAGAGCCACTGAACGAGGGTAAGGAGCGGCCACCGCGCGGACTCCGCAACCTTCCCGGGATAGCTTCCGTGTCCTTGGCTCAGCTGTGTATGCCCGTGGTGCGAGCACTGCGGAGCCGCCTGGGGCGCAAGCCGGGTCTTCACCAGTCCCCGGGCGCGCTGTCGGTAGGGCGGGCGCTCTCGGGCCACCGGGCGGGAGGTGGCCGCGTCCCCAGACACTGGCTGGGCCAGAGTGAGTTTAGCGCGTAGGCGGC (double strand) [KLF4 intron 1-2 TAL site 2]
- activity [4]: 36.5%

Substance: GGGGGCGGGCGGAGCCTTGGGGTCACCAAGAGCCACTGAACGAGGGTAAGGAGCGGCCACCGCGCGGACTCCGCAACCTTCCCGGGATAGCTTCCGTGTCCTTGGCTCAGCTGTGTATGCCCGTGGTGCGAGCACTGCGGAGCCGCCTGGGGCGCAAGCCGGGTCTTCACCAGTCCCCGGGCGCGCTGTCGGTAGGGCGGGCGCTCTCGGGCCACCGGGCGGGAGGTGGCCGCGTCCCCAGACACTGGCTGGGCCAGAGTGAGTTTAGCGCGTAGGCGGC (double strand) [KLF4 intron 1-2 TAL site 3]
- activity [5]: > 25%

— US20210155907
